Test results taken from the array DNA melting data of Ke et al..

Experiment: melting temperature; melt of duplexes
Settings: sodium 0.0675 M; strand 1 µM

Substance | Tm
CGACGTGCGTCATGTGCTG+CAGCACATACTGCACGTCG ((((((((...((((((((+))))))))...)))))))) | 50.9 °C
CGACGTGCGTCATGTGCTG+CAGCACATAGCGCACGTCG (((((((((..((((((((+))))))))..))))))))) | 55.1 °C
CGACGTGCGTCATGTGCTG+CAGCACATATTGCACGTCG ((((((((...((((((((+))))))))...)))))))) | 49.2 °C
CGACGTGCGTCATGTGCTG+CAGCACATCCAGCACGTCG ((((((((...((((((((+))))))))...)))))))) | 50.7 °C
CGACGTGCGTCATGTGCTG+CAGCACATCGAGCACGTCG ((((((((...((((((((+))))))))...)))))))) | 52.3 °C
CGACGTGCGTCATGTGCTG+CAGCACATCGCGCACGTCG (((((((((..((((((((+))))))))..))))))))) | 54.2 °C
CGACGTGCGTCATGTGCTG+CAGCACATCTAGCACGTCG ((((((((...((((((((+))))))))...)))))))) | 51.5 °C
CGACGTGCGTCATGTGCTG+CAGCACATCTCGCACGTCG (((((((((..((((((((+))))))))..))))))))) | 52.4 °C
CGACGTGCGTCATGTGCTG+CAGCACATGAAGCACGTCG ((((((((.((((((((((+)))))))))).)))))))) | 59.4 °C
CGACGTGCGTCATGTGCTG+CAGCACATGAGGCACGTCG ((((((((.((((((((((+)))))))))).)))))))) | 60.7 °C
CGACGTGCGTCATGTGCTG+CAGCACATGATGCACGTCG ((((((((.((((((((((+)))))))))).)))))))) | 61.1 °C
CGACGTGCGTCATGTGCTG+CAGCACATGCGGCACGTCG ((((((((..(((((((((+)))))))))..)))))))) | 54.4 °C
CGACGTGCGTCATGTGCTG+CAGCACATGGCGCACGTCG (((((((((.(((((((((+))))))))).))))))))) | 63.5 °C
CGACGTGCGTCATGTGCTG+CAGCACATTAAGCACGTCG ((((((((.(.((((((((+)))))))).).)))))))) | 53.3 °C
CGACGTGCGTCATGTGCTG+CAGCACATTACGCACGTCG ((((((((((.((((((((+)))))))).)))))))))) | 57.4 °C
CGACGTGCGTCATGTGCTG+CAGCACATTCAGCACGTCG ((((((((...((((((((+))))))))...)))))))) | 51.3 °C
CGACGTGCGTCATGTGCTG+CAGCACATTGGGCACGTCG ((((((((...((((((((+))))))))...)))))))) | 49.9 °C
CGACGTGCGTCATGTGCTG+CAGCACATTGTGCACGTCG ((((((((...((((((((+))))))))...)))))))) | 46.3 °C
CGACGTGCGTCATGTGCTG+CAGCACATTTCGCACGTCG (((((((((..((((((((+))))))))..))))))))) | 53.1 °C
CGACGTGCGTGATGTGCTG+CAGCACATAAGGCACGTCG ((((((((.(.((((((((+)))))))).).)))))))) | 52.7 °C
CGACGTGCGTGATGTGCTG+CAGCACATAGAGCACGTCG ((((((((...((((((((+))))))))...)))))))) | 53.1 °C
CGACGTGCGTGATGTGCTG+CAGCACATATCGCACGTCG (((((((((..((((((((+))))))))..))))))))) | 54.6 °C
CGACGTGCGTGATGTGCTG+CAGCACATCACGCACGTCG (((((((((((((((((((+))))))))))))))))))) | 66.2 °C
CGACGTGCGTGATGTGCTG+CAGCACATCAGGCACGTCG ((((((((.((((((((((+)))))))))).)))))))) | 59.6 °C

Substance | Tm
CGACGTGCGTGATGTGCTG+CAGCACATCATGCACGTCG ((((((((.((((((((((+)))))))))).)))))))) | 60.2 °C
CGACGTGCGTGATGTGCTG+CAGCACATCCAGCACGTCG ((((((((..(((((((((+)))))))))..)))))))) | 55.5 °C
CGACGTGCGTGATGTGCTG+CAGCACATCGCGCACGTCG (((((((((.(((((((((+))))))))).))))))))) | 63.6 °C
CGACGTGCGTGATGTGCTG+CAGCACATCGTGCACGTCG ((((((((..(((((((((+)))))))))..)))))))) | 54.5 °C
CGACGTGCGTGATGTGCTG+CAGCACATCTAGCACGTCG ((((((((..(((((((((+)))))))))..)))))))) | 57.2 °C
CGACGTGCGTGATGTGCTG+CAGCACATCTCGCACGTCG (((((((((.(((((((((+))))))))).))))))))) | 61.3 °C
CGACGTGCGTGATGTGCTG+CAGCACATGACGCACGTCG ((((((((((.((((((((+)))))))).)))))))))) | 57.8 °C
CGACGTGCGTGATGTGCTG+CAGCACATGCAGCACGTCG ((((((((...((((((((+))))))))...)))))))) | 54.1 °C
CGACGTGCGTGATGTGCTG+CAGCACATGGGGCACGTCG ((((((((...((((((((+))))))))...)))))))) | 51.2 °C
CGACGTGCGTGATGTGCTG+CAGCACATGTAGCACGTCG ((((((((...((((((((+))))))))...)))))))) | 53.3 °C
CGACGTGCGTGATGTGCTG+CAGCACATTAAGCACGTCG ((((((((.(.((((((((+)))))))).).)))))))) | 54.5 °C
CGACGTGCGTGATGTGCTG+CAGCACATTATGCACGTCG ((((((((.(.((((((((+)))))))).).)))))))) | 54.5 °C
CGACGTGCGTGATGTGCTG+CAGCACATTCTGCACGTCG ((((((((...((((((((+))))))))...)))))))) | 51.8 °C
CGACGTGCGTGATGTGCTG+CAGCACATTGAGCACGTCG ((((((((...((((((((+))))))))...)))))))) | 54.7 °C
CGACGTGCGTGATGTGCTG+CAGCACATTGCGCACGTCG (((((((((..((((((((+))))))))..))))))))) | 58 °C
CGACGTGCGTGATGTGCTG+CAGCACATTGGGCACGTCG ((((((((...((((((((+))))))))...)))))))) | 52.3 °C
CGACGTGCGTGATGTGCTG+CAGCACATTTAGCACGTCG ((((((((...((((((((+))))))))...)))))))) | 53.6 °C
CGACGTGCGTGATGTGCTG+CAGCACATTTTGCACGTCG ((((((((...((((((((+))))))))...)))))))) | 50.7 °C
CGACGTGCGTTATGTGCTG+CAGCACATAAAGCACGTCG ((((((((.((((((((((+)))))))))).)))))))) | 56 °C
CGACGTGCGTTATGTGCTG+CAGCACATAACGCACGTCG (((((((((((((((((((+))))))))))))))))))) | 63.6 °C
CGACGTGCGTTATGTGCTG+CAGCACATAAGGCACGTCG ((((((((.((((((((((+)))))))))).)))))))) | 56.5 °C
CGACGTGCGTTATGTGCTG+CAGCACATAATGCACGTCG ((((((((.((((((((((+)))))))))).)))))))) | 57.4 °C
CGACGTGCGTTATGTGCTG+CAGCACATACAGCACGTCG ((((((((..(((((((((+)))))))))..)))))))) | 53.3 °C
CGACGTGCGTTATGTGCTG+CAGCACATAGAGCACGTCG ((((((((..(((((((((+)))))))))..)))))))) | 54.6 °C

Substance | Tm
CGACGTGCGTTATGTGCTG+CAGCACATATAGCACGTCG ((((((((..(((((((((+)))))))))..)))))))) | 54.5 °C
CGACGTGCGTTATGTGCTG+CAGCACATCCTGCACGTCG ((((((((...((((((((+))))))))...)))))))) | 49.2 °C
CGACGTGCGTTATGTGCTG+CAGCACATCGGGCACGTCG ((((((((...((((((((+))))))))...)))))))) | 48.6 °C
CGACGTGCGTTATGTGCTG+CAGCACATCGTGCACGTCG ((((((((...((((((((+))))))))...)))))))) | 44 °C
CGACGTGCGTTATGTGCTG+CAGCACATGAAGCACGTCG ((((((((.(.((((((((+)))))))).).)))))))) | 54.8 °C
CGACGTGCGTTATGTGCTG+CAGCACATGAGGCACGTCG ((((((((.(.((((((((+)))))))).).)))))))) | 54.1 °C
CGACGTGCGTTATGTGCTG+CAGCACATGATGCACGTCG ((((((((.(.((((((((+)))))))).).)))))))) | 54.6 °C
CGACGTGCGTTATGTGCTG+CAGCACATGTAGCACGTCG ((((((((...((((((((+))))))))...)))))))) | 53.6 °C
CGACGTGCGTTATGTGCTG+CAGCACATGTCGCACGTCG (((((((((..((((((((+))))))))..))))))))) | 55 °C
CGACGTGCGTTATGTGCTG+CAGCACATTCAGCACGTCG ((((((((...((((((((+))))))))...)))))))) | 52.1 °C
CGACGTGCGTTATGTGCTG+CAGCACATTCGGCACGTCG ((((((((...((((((((+))))))))...)))))))) | 49.8 °C
CGACGTGCGTTATGTGCTG+CAGCACATTCTGCACGTCG ((((((((...((((((((+))))))))...)))))))) | 50 °C
CGACGTGCGTTATGTGCTG+CAGCACATTGCGCACGTCG (((((((((..((((((((+))))))))..))))))))) | 55.7 °C
CGACGTGCGTTATGTGCTG+CAGCACATTGTGCACGTCG ((((((((...((((((((+))))))))...)))))))) | 47.2 °C
CGACGTGCGTTATGTGCTG+CAGCACATTTCGCACGTCG (((((((((..((((((((+))))))))..))))))))) | 54.4 °C
CGACGTGCGTTATGTGCTG+CAGCACATTTGGCACGTCG ((((((((...((((((((+))))))))...)))))))) | 49.4 °C
CGACGTGCGTTATGTGCTG+CAGCACATTTTGCACGTCG ((((((((...((((((((+))))))))...)))))))) | 49.7 °C
CGACGTGCTAAATGTGCTG+CAGCACATAACGCACGTCG ((((((((...((((((((+))))))))...)))))))) | 50 °C
CGACGTGCTAAATGTGCTG+CAGCACATACAGCACGTCG (((((((((..((((((((+))))))))..))))))))) | 51.9 °C
CGACGTGCTAAATGTGCTG+CAGCACATAGAGCACGTCG (((((((((..((((((((+))))))))..))))))))) | 52.9 °C
CGACGTGCTAAATGTGCTG+CAGCACATATAGCACGTCG ((((((((((.((((((((+)))))))).)))))))))) | 55.4 °C
CGACGTGCTAAATGTGCTG+CAGCACATCAGGCACGTCG ((((((((...((((((((+))))))))...)))))))) | 50.9 °C
CGACGTGCTAAATGTGCTG+CAGCACATCCCGCACGTCG ((((((((...((((((((+))))))))...)))))))) | 48.9 °C
CGACGTGCTAAATGTGCTG+CAGCACATCCGGCACGTCG ((((((((...((((((((+))))))))...)))))))) | 49.5 °C
